From the nanobody polyreactivity screen of Harvey et al. (2022)

Experiment: yeast display, Sf9 membrane polyspecificity reagent, FACS + sequencing; frameworks hold sequencing errors
Summary of the method: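 Synthetic nanobody libraries on Saccharomyces cerevisiae BJ5465 were galactose-induced for 36–48 hours, stained 1 hour at 4 °C with 10% biotinylated, detergent-solubilized Sf9 membrane reagent and enriched on streptavidin microbeads. FACS then separated cells into low and high (top ~1%) gates by anti-HA (expression) and streptavidin (reagent binding) fluorescence. Genes were colony-PCR amplified, MiSeq 2 × 250 sequenced and CDR-length filtered. A clone's polyreactivity label is that of its gate of origin.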

## QDQLVESGGGLVQAGGSLRLRCAASRFYTMGWYRQAPGKERELVAAISWSGGDTYYADSVKGRFTISRDNAKNTVYLQMNSLKPEDTAVYYCAKKTIGSYVHEPYYYWGQGTQVTVSS
  polyreactivity (PSR sort gate): low polyreactivity

## QVQLVESGGGLVQAGGSLRLSCAASGIIFYDYAMGWYRPAPGKERELVAAINYSGGSTYYADSVKGRFTISRDNAKNTVYLQMNSLKPEDTAVYYCAADNAVWEYDYWGQGSQVTVSS
  polyreactivity (PSR sort gate): low polyreactivity

## QVQLVESGGGLVQAGGSLRLSCAASGSIFDFNAMGWYRQVPGKERELVAAITSGGSTNYADSVKGRFTISRDNAKNTVYLQMNSLKPEDTAVYYCAARPARGASQGGYVRPWWYDYWGQGTQVTVSS
  polyreactivity (PSR sort gate): low polyreactivity

## QVQLVESGGRLVQAGGSLRLSCAASGSIFYDNAMGWYRQAPGKERELVAVITVSGDSTYYADSVKGRFTISRDNAKNTVYLQMNSLKPEDTAVYYCNTDAISGSHFWRYITFGYLDDYWGQGTQVTVSS
  polyreactivity (PSR sort gate): low polyreactivity

## QVQLVESGGGLVQAGGSLRLSCAASGRIFFYYAMGWYRQAPGKERELVAAIRSGGSTNYADSVKGRFTISRDNAKNTVYLQMNSLKPEDTAVYYCAADPSRYYTRRYYYWGQGTQVTVSS
  polyreactivity (PSR sort gate): high polyreactivity

## QVQLVESGGGLVQAGGSLRLSCAASGRTFTQYAMGWYRQAPGKERELVARISYSGGTTYYADSVKGRFTISRDNAKNTVYLQMNSLKPEDTAVYYCARDYYGSVRFDHWGQGTQVTVSS
  polyreactivity (PSR sort gate): high polyreactivity

## QVQLVESGGGLVQAGGSLRLSCAASGRIFRHNTMGWYRQAPGKERELDAGITASGGDTYYADSVKGRFTISRDNAKNTVYLQMNSLKPEDTAVYYCAKRGQSYTYRRYDYWGQGTQVTVSS
  polyreactivity (PSR sort gate): low polyreactivity

## QVQLVESGGGLVQAGGSLRLSCAASGRISFRYAMGWSRQAPGKEWELVAAINRGGITNYADSVKGRFTISRDNAKNTVYFQMNSLKPEDTAVYYCAARYASPRYKSKMDYWGQGTQVTVSS
  polyreactivity (PSR sort gate): high polyreactivity

## QVQLVESRGGLVQAGGSLRLSCPDSGYIFFTNSMGWYRQEPGKERELVAAISSAGRTKYADSVKGRFTISRDNAKNTVYLQMNSLKPEDTAVYYCNKAFYYLWGTGYDYWGQGTQVTVSS
  polyreactivity (PSR sort gate): low polyreactivity

## QVQLVESGGGLVQAGGSLRLSCAASGRTFHRYAMGWYRQAPGKERELVAAINWRGGSTYYADSVKGRFTISRDNAKNTVYLQMNILKPEDTEVYYCAAKTTTPYRYIYYYWGQGTQVTVSS
  polyreactivity (PSR sort gate): high polyreactivity

## QVQLVESGGGLVQAGGSLRLSCAASGFTFRYYTMGWYRQAPGKERELVAAITASGSSTYYADSVKGRFTISRDNAKNTVYLQMNSLKPEDTAVYYSKALHFYGVGRYDHWGQGNQVTVSS
  polyreactivity (PSR sort gate): high polyreactivity

## QVQLVESGGGLVQAGGSLRLSCAASGRTYYPNAIGWYRQAPGKEMDLVADITYSGASTYYADSVKGRFTISRDNAKNTVYLQMNSLKPEDTAVYYCAVPGATSYFAYDSWGQGTQVTVSS
  polyreactivity (PSR sort gate): low polyreactivity

## QVQLVESGGGLVQAGGSLRLSCAASGFIFTGYAMGWYRQAPGKERELVASISSGGSTYYADSVKGRFTISRDNAKNTVYLLMNSLKPEDTAVYYCNASVSLGRYPGNEYDYEYWGQGTQVTVSS
  polyreactivity (PSR sort gate): low polyreactivity

## QVQLVESGGGLVQAGGSLRLSCAASGSTFSRYAMGWYRQAPGKERELVAAISWGGNTYYADSVKGRFTISRDNAKNTVYLQMNSLKPEDTAVYYCNRYSKLYNTMDYWGQGPQVTVSS
  polyreactivity (PSR sort gate): high polyreactivity

## QVQLVDSGGGLVQAGGSLRLSCSASGFTFKYYAMGWYRQAPGKERELVASINWSGGRTSYADSVKGRFTISRDNAKNTVYLQMNSQKPEDTAVYYCARTPAGRGEYWGQGTQVTVSS
  polyreactivity (PSR sort gate): low polyreactivity

## QVQLVESGGGLVQAGGSLRLSCAASGFTFSGNVMGWYRQAPGKERELVAGISRSGSSTSYADSVKGRFTISRDNAKNTVYLQMNSLKPEDTAVYYCNKVKRSYYYVDTDYWGQGTQVTVSS
  polyreactivity (PSR sort gate): high polyreactivity

## QVQLVESGGGLVQAGGSLRLSCAASGRTFYANAMGWYRQAPGKERELVATISSGGRTNYADSVKGRFTISRDNAKNTVYFQMNSLKPEDTAVYYCAKRGPYNRWYGRYDYWGQGTQVTVSS
  polyreactivity (PSR sort gate): low polyreactivity

## QVQLVESGGGLVQAGGSLRLSCAASGRTFKYNAMGWYIQAPGKERELVAAISSRGGSTYYADSVKGRFTISRDNAKNTVYLQMNSLKPEDTAVYYCAKATSSSEYGYDYWGQGTQVTVSS
  polyreactivity (PSR sort gate): high polyreactivity

## QVQLVESGGGLVQAGGSLRLSCAASGFIFVRNAMGWYRQAPGKERELVAAITGRGGRTYYADSVKGRFTISRDNAKNTVYLQMNSLKPEDTAVYYCAKDSPDDHFGYWGQGTQVTVSS
  polyreactivity (PSR sort gate): high polyreactivity

## QVQLVESGGGLVQAGGSLRLSCAASGRTIGVYAMGWYRQAPGKERELVAAISWSGGTTYYADSVKGRFTISRDNAKYTVYLQMNSLKPEDTAVYYCAADSYTEVDYWGQGTQVTVSS
  polyreactivity (PSR sort gate): low polyreactivity

## QVQLVESGGGLVQAGGSLRLSCAASGRTFVYNAMGWSRQAPGKERELVAAITSGGSTYYADSVKGRFTISRDNAKNTVYLQMNSLKPEDTAVYYCAAYKRGYYWGQGTQVTVSS
  polyreactivity (PSR sort gate): high polyreactivity

## QVQIVESGGGLVQAGGSLRLSFAASGSIFSYNSMGWYRQAPGRERELVAAITPGCTSYYADSVKGLFRISRDNAKNTVYIQMNSLTPEDTAVYYCAADGLSRDTLYPYDYWGQGSQVTVSS
  polyreactivity (PSR sort gate): low polyreactivity

## QVQLVESGGGLVQAGGSLRLSCAASGLIFYDNMGWYRQAPGKERELLAAISSSGGSTSYADSVKGRFTISRDNAKITVSLQMNCLKPEDTGVYYCAADSYPAYLGFVGFDYWGQGTQVTVSS
  polyreactivity (PSR sort gate): low polyreactivity

## QVQLVESGGGLVQAGGSLRLSCAASGNIFTGYMGWYRQAPRKERELVAAISRSGGRTHYADSVKGRFTISRDNAKNTVYLQMNSLKPEDTAVYYCNADVRRYTAFTKYPYAFNYWGQGTQVTVSS
  polyreactivity (PSR sort gate): high polyreactivity

## QVQLVESGGGLVQAGGSLRLSCAASGSIFGWYAMGWYRQAPGKERELVAAIDSATSTDYADSVKGRFTISRDNAKNTVYLQMNSLKPEDTAFYYCAVYSCWIDAEYDYWGQGTQVTGSS
  polyreactivity (PSR sort gate): low polyreactivity

## QVQLVESGGGLVQAGGSLRLSCAASGRTFIGYAMGWYRQAPGKERELVAAISSSGGRTYYADSVKGRFTISRDNAKNTVYLQMNSLKPEDTAVYYCNAVRYVLGYSYDYNYWGQGTQVTVSS
  polyreactivity (PSR sort gate): high polyreactivity

## QVQLVESGGGLVQAGGSLPLSCAASASIFSYYDMGWYRQAPGKERELVAAISWSGGSTYYADSVKGRFTISRDNAKNTVYLQMNSLKPEDTAVYYCAAGTYPYYWGQGTQVTVSS
  polyreactivity (PSR sort gate): low polyreactivity

## QVQLVESGGGLVQAGGSLRLSCAASGSTFSNYAMGWYRQAPGKERELVASISNGGSTNYADSVKGRFTISRDNAMNTVYLQMNSLKPEDTSVYNCNAESKAKYDYWGQGTQVTVSS
  polyreactivity (PSR sort gate): low polyreactivity

## QVQLVESGGGLVQAGGSLRLSCAASGFTYIRYAMGWSRKATGKERQLVAAIRGTGTSTYFADSVKGRFTISRDNGKNTVYLQMNSLKPEETAVYYCNNVSGRSPYTRYDYWGQGTQVTVSS
  polyreactivity (PSR sort gate): low polyreactivity

## QVQLVESGGGLVQAGGSLRLSCAASGRISLVNAMGWYRQAPGKERELVAAITYTGGSTYYADSVKGRFTISRDNAKNTVYLQMNSLKPEDTAVYYCAAEYYYVYTYDYWGQGTQVTVSS
  polyreactivity (PSR sort gate): high polyreactivity

## QVQLVESGGGLVQAGGSHRLSCAASGSIFNLYTMGWYIQAPGKERELVAAIRWSGGRTYYADSVKGRFTISRDNAKNTVYLQMNSLKAEDTAVYYCAVRRVVARYDHWGQGTQVTVSS
  polyreactivity (PSR sort gate): low polyreactivity

## QVQIEESGGGLVQAGGSLRLSCAASGFTFRWYAMGWSIQAPGKERELVAAIDWSGGSTNYADSVKGRFTISRDNAKNTVYLQMNSLKPEDTAVYYCAAVWRYWYPGFVPYDYWGQGTQVTVSS
  polyreactivity (PSR sort gate): high polyreactivity
